Source: the Immune Epitope Database (IEDB)

How the values were obtained:
Experiment in all cases: IEDB peptide-MHC binding, purified MHC/competitive/fluorescence; filed as Kd, often an IC50 or EC50 that approximates it; ≥ and ≤ were set here for values at or beyond the usual limits of such assays
Details in all cases: source organism: Vibrio cholerae 2740-80
[1] = biological target: HLA-B*08:01
[2] = biological target: HLA-B*51:01
[3] = biological target: HLA-B*14:02
[4] = biological target: HLA-A*66:01
[5] = biological target: HLA-B*44:02
[6] = biological target: HLA-B*53:01
[7] = biological target: HLA-A*01:01

Measured: Kd

MGMEQTMSV
≥ 5 µM: all assays above
